Test results reported in patent US8846003 (PURDUE RESEARCH FOUNDATION, dated 2014).
*: point of attachment. Dansyl = CN(C)c1cccc2c(S(=O)(=O)*)cccc12

Legend:
[1] = target: T1, collagen; assay: fluorescence plate binding assay; collagen coated on 96-well high-binding plate, Z-SILY 100 µM to 10 nM, ex/em 335/490 nm; from equilibrium binding
T1 construct: also called collagen surface; collagen-treated well
Method: (§1) Binding assays were done in a 96-well high-binding plate, black with a clear bottom (Costar). Collagen was compared to untreated wells and BSA coated wells. Collagen and BSA were immobilized at 37° C. for 1 hr by incubating 90 µL/well at concentrations of 2 mg/mL in 10 mM HCl and 1×PBS, respectively. Each well was washed 3× with 1×PBS after incubating. Z-SILY was dissolved in 1×PBS at concentrations from 100 µM to 10 nM in 10-fold dilutions. Wells were incubated for 30 min at 37° C. and rinsed 3× with PBS and then filled with 90 µL of 1×PBS. Fluorescence readings were taken on an M5 Spectramax Spectrophotometer (Molecular Devices) at excitation/emission wavelengths of 335 nm/490 nm respectively.

[2] = target: T1, collagen; assay: microplate fluorescence binding assay on collagen-coated wells, binding curve fitted to the data of FIGURE 4
Text: Figure 4: FIG. 4. Binding of dansyl-modified peptide SILY to collagen measured in 96-well high-binding plate (black with a clear bottom (Costar)). PBS, buffer only; BSA, BSA-treated well; Collagen, collagen-treated well. Fluorescence readings were taken on an M5 Spectramax Spectrophotometer (Molecular Devices) at excitation/emission wavelengths of 335 nm/490 nm, respectively. Figure 5: FIG. 5. Collagen-dansyl-modified peptide SILY binding curve derived from fluorescence data described in FIG. 4. Figure 6: FIG. 6. A schematic description of the reagent, 3-(2-pyridyldithio)propionyl hydrazide (PDPH), and the chemistry of the two-step conjugation of a cysteine-containing peptide with an oxidized glycosylaminoglycoside showing the release of 2-pyridylthiol in the final step.
as §1, with “Wells were incubated for 30 min at 37° C. and rinsed 3× with PBS and then filled with 90 µL of 1×PBS.” left out

B1: Dansyl-GRRANAALKAGELYKSILYGC (peptide)
peptide: Dansyl-GRRANAALKAGELYKSILYGC-NH2
notes: Fluorescently labelled version of SILY; also called Z-SILY; ZSILY
Kd [1]: 860 nM
EC50 (read off the curve) [2]: ~900 nM
